In the DeepSol protein solubility set:

Assay: soluble on expression in E. coli; label from the status in PepcDB or PDB records

Soluble on expression in E. coli, not soluble:
MGSDKIHHHHHHMKQIDLVYRTAFAELAQRTFDAQFQADFPLEGRFVAVPVKGRNYWYFDLPTPEGKDKRRYVGPQDDVDITARVKAHRQVKDDIRERRKLVGMLLRSGGMSAPDRFAGEVTKALADAGLFRLRALLVGSVAFSCYSGLLGVRLPGTSMQTGDADFAQDFAISAEVEDSLPPILDLLRSIDSTFRAVPHQADNAKVVAFSNSVNYRVEFLTTNRGSDDYTGKPSPMPALGGASAENLRFLDFLIYEPVRTVLLHREGVSVNIPAPERYAIHKLIVASRRRTDALGRAKRDKDLVQASLLCEALVETRQSHLLADAYREAWTRGEAWQEGILSGLVLMPDNGKLALANALGVTVDRLGKA, MGSDKIHHHHHHMKQVDYIIVGQGLAGSCLVQSLWHEKQSVVVIASSERKASSTVAAGLYNPITGKKMLLTWNAAVLFPYLDLFYRSAERELDTTILYPKAIVRPFTDIQAQNDFWAKSTPEIAAFAEPEQNIEKYDPYIWFPYGGLITKHSGYVDVQAFLGAIKQKLVEKDQYIEETFDHAALQFSTNSVAYKGIQAKKIIFAEGFHNTRNPIFNWVPVKGMKGDVLTLDIEAYALKEVVNKHFFIIPLPNGKFRMGSSYIREFEDDAPTEGGLKEITEGAHTILKKPFVVIEQKAGIRPVVPDHRPIIGEHPEQPLALIFNGLGTKGVSIAPYASKTLTNFLLLNQEIDQSMSVNRFNYLYFKQKNN, MGSDKIHHHHHHMKRRPTINDVAKLAGVSISTVSRYLKDPSQVSEKLGERIREAIKKLGYKPNKIAQGLRTGDSKMIGFIVPDITNPAFLTIVKGAEDFLRKKGYSFIIGGTDHKSKDEVVILESFIFHNVDGVIVTCTGYENKALKELIERYHLKLVFVDRRYPGIDAPYIGVDNFGGVARMVDYLVETGHRSFAYLCGDMTSTAKERLEGFLDRMKKYKIKDYQVLYGEFTFESGYKLTKRLSKIPDAIIAGNDLMAFGVIEALKERGLVVPEDVSVTGFDDMFFSKYYKPSLTTVRQDLYEMGKQAGKVLFALISGKKIRKKEYILPTEIVIRDSVKERRA, MGSDKIHHHHHHMKRSEKKSMSSALKNGIMERTQPEKVVQMQGTADLSTSKLGTKKYWDELYALELENFRRNPQDTGDCWFSDSDAEQKMIDFLVDNIGAYRISENASVVDLGTGNGHMLFELHQTEFQGKLVGIDYSEESVKLASNIAEATGVDNFISFQQADIFSGDWKPGKYDIVLDKGTLDAISLSGMKINGKLDVVDVYAGVVERILKKDGIFLITSCNFTQDELVKIIETDNLKMWKTIKYPVFQFGGVQGATICSVAFVKQN, MGSDKIHHHHHHMKRSQINEIMAEAETFMRSFGFVLPPFAYWTPEEMRANASVAKAVIDGRLGWDITDYGEGKFDELGLFLFTLRNGRLSDLQAGGGMCYAEKLLISKQDQISPMHRHMLKAEDIINRGGATMAIELNGSAPDGSFDPDAGGVVMCDGIERRFSAGEVLLFAPGESVTLMPGDWHKFWGEGGDVLIGEVSTVNNDDTDNWFREPIGRFAAVDEDVAPTHLLVSDYGTWL, MGSDKIHHHHHHMKSPEEVTKWVRQRYQRQRWAWLDGGGAWPLQVSLDLPTQKVALADPSAVRTWSSSWADWLAVHPADASRPLPELLTATVAWRNMGEQTLPGALAFSSPECVADYCGDGKVWRRIVSRRATMLARWPALHASGFGSNYTALGEFKDEDFERLLAVLEWLVANPKSGIYLRQLPVPNIDTKWIDLQRRGVVADLFSRIIKPQAALQAVQSFVEGEGAEIDATGQAYSIEKESSNFYDTCGLLRPPVKLRILILCPKLRTQVGGLRDIEATIEDWAQLQLKPRQLLVVENKDTCLAMPDVDGVVAVIKLGNAVALVTRIAWLVRVPVLYWGDIDTYGYSILVQARKKLHDVRSVLMDRSTVETHLDRLVEEGQQTKSIDRSLLTAAELDVYDALLAHDWGTSRRLEQERLEWPSALRTVLSALHQRESKSA, MGSDKIHHHHHHMKSYIIVGAGILGASTAYHLAKTGARVTVIDRKEPGQATDAAAGIVCPWLSQRRNQDWYQLAKGGARYYKDLIHQLEKDGESDTGYKRVGAISIHTDASKLDKMEERAYKRREDAPEIGDITRLSASETKKLFPILADGYESVHISGAARVNGRALCRSLLSAAEKRGATVIKGNASLLFENGTVTGVQTDTKQFAADAVIVTAGAWANEILKPLGIHFQVSFQKAQIMHFEMTDADTGSWPVVMPPSDQYILSFDNGRIVAGATHENDAGLDDLRVTAGGQHEVLSKALAVAPGLADAAAVETRVGFRPFTPGFLPVVGAVPNVQGLYAANGLGASGLTMGPFLGAELAKLVLGKQTELDLSPYDPAGALA, MGSDKIHHHHHHMKTDFTIREAQQTDTIALKELFQNTVLAVNSKDYSQAEVEDWASCGDDLSNIEEMIKTHYFIVAVNQQSQIVGFSSITSQGYLHSMFVHKDFQGKGIATMLLEEIERYAITAGIMRITSEVSLTARPFFEKKGYIVKEEQKRKANQLSLTNFWMAREMAKIKPYNGRIPACGVFCGGCPIYTREKRACRGAELNHSRCEKCKTFHLCCFGKKITHCFQCSNFPCTRFKGFAKRWQKHGQDFIENQKLLSEIGEVAFLEYYNKKVTD, MGSDKIHHHHHHMKTIAIRDVTGIMEPLPGFSVVRTDGSDGQRSIKLNGYKTTNNQYGYQFVKNENTVVYDDEEYIIKTHRERTYRKGVGVEATAIHRIFDDLRNNYIYDEKTGTLRLDAMLSFALEGSGYTFEIDTTDLPASVRVENFGWNNSLALFRDILEKFGAEFDYKGKKIYVAKKFGIQRDEPFLRYRFNVKDPEKEIDTSSFATYIRGYGKKDDKGNYLFAEYTSPLAKIYGIKHADPVKDERYTDKDSLLAAMKKQLNDNIDISLTFTAIELESMGLRDIKKGDYVWCVIEPFDLNVQLRAVSREDYSDETKSPTFTFGTITKKASDIIASFNTTKKAVDKVIDTSTGKIKDSAIDTTGLTTKSEFQSHVDNKIVHITAEERAAWNAASNSIGDLTFITWSTPTLKNGWIQYTANTESYPIQYGKDAIGTVNIRGAVSSGVVGSSTPVFTLPAGFRPPFPHLFIGVSSVATDGTPQYFRGIIKTNGDVCIENISNKDTPNQFIGIYTQFKAI, MGSDKIHHHHHHMKTLKNLITSKHQTKASRFLGYLMPFDDFEKTLLQLKKEHFKAAHFVTAFRYSLEGKITEGFSDDGEPKGSSGMPMLSVLRREDLINIGLVSVRYFGGTLLGVGGLMKAYAKSALLCVENAQKEDALKDFVELETLSAHYSYKELDALQREIKKFSLQLSKKNFSNQSVEVEISGTRENLQAFLQQNKIN, MGSDKIHHHHHHMKTLQTHRVLQALIGHFTPFLESGITELMINTEQELWLYKVNNTREKRGHALFDKAFLLRFCEQLASFRGLFFDEEHPTLNCSIPFTRYRVSANHFSITTNNQITLNIRVPRLKPLSLEDFTFKASDPKSLKDLALKGHNILISGETSSGKTSLLNALLDCVNKDERVVSVEDSQELDLKAFSNCVGLLVGKQENTRFNYEDALNMAMRLNPDRLIVGEIDTRNAALFLRLGNTGHKGMLSTIHANSAQNTLEALSLNLSMRYMYSLDKDLMRAYFKSAIDVIVHVNRINNERQIAEVLWTKEL, MGSDKIHHHHHHMKVAIVIHDLKGGGAEKMMMRLANAISKQHHEVDLVLLTNGGTNKDLLDNGVNLIELNSLRTASSVPRLRQYLKINSPDRVLSALTHVNVITFIACLSLGWLSRLHCSERNAFSFDKDVNKSPLIKFAYFLAPFLYRISPNPVIAVSLGVALDLIETTVVCPKNVINLPNPTLNDNYKTHIFLAPSHPWLSDKTKPVIVGLGRLAQQKGFSDLINAFALVREKIDSRLIIFGEGELRIKLQTQIDNLGLTDSVSLFGYVRAPMDEVHSADVFVLSSLFEGSPNALVEAMASRCKVVSTRCPCGPDEILIQGALGILVPVKSPNKLAEAIICSLLDADYDFENQLDKIERFTANNSASAYLSAMGIHGV, MGSDKIHHHHHHMKVKWSRDFSIKNMQLDKQHELIFEITNLANDLALNIQDNNTQHKNDLKQILVKLFQYIKIHFKDEEKFMESIDFPLIEEHKKSHQILVEKTKELLEHSNDIVKMSQELSILTKDWILDHFANEDLWIANFTKKTLHLQEIHYTLEQYIKLKSIKQDLRAEKTYDYICNCSLRIHAVPQTIHQELVSKENTLKCEKCGQILVHLDYFDLNQNFEKFNAIFEDALQNHHFTTQENDMRGGG
